experiment: protease stability score; higher = more stable; yeast display proteolysis, trypsin and chymotrypsin;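 note: log10 excess protease needed over predicted unfolded state with 0 meaning unfolded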

Going from “DEDDQLRKLLEEIVDALDRGNESELRNLMDKDVRVDVGDKTITGRENAAEFLIRLANEADEIDINITDLKVDNGNISLRFQLHLHHNGRNVTRQVTIVIDRKGDELKVKYIRMS” to “DEDDQRRKAETLVRQISTGNPDDLKKMVDPNVKVKVGDKEYHGREEMAKDIKHIEDAVDHLEVKSVDAHNGRIDIVIVMHINGTRVHMRVEFQLNNGKVKSAERRYTDQDQKNTFER”, the protease stability score falls from 0.031 to -0.39.

First: DEDDQVRKILETQDRAMRTGDEDTYVNQADKDVRVKVGDKKLRGREEWKKEVTRIIERVDHFDVHIDHIDHQGDKIVIRQVIVLEHDGRRDSKTYNMTARNKNGRVKWKEVTEK
Second: DEDDRKRVAKEFMDNLNTGNEDEALKLADKDARLRYGDKTLHGREQIKDWLHTLRERIDSIEVHRIEVQGDKVRVRASVVINGKEEMVDINFRMSNGRLEKVTFDPRLDEMLKG
The protease stability score of the first is lower: -0.205 for the first, 1.44 for the second.

Compared with “DEDDRRRQARKLASALVTGNHQEVRELADKDVHAEYGDRRYRGREKLDEAAKDMHKQADSLTVRDVKFTGDKVNIDLQLNINGRRLTVSLTAQLENGRFKEIVVQVTDPETLRHVKQ”, “DEDDVDRVRNLIHALNKGNPDDVNNQADENVRFVIGDKTFHGKETLRTRIEEQKSHSRYQVDSVHAEARNGQVEVHVNMTMTENGQPRKNTYEIQARVHNGRVKDFRMTESR” is lower in protease stability score: -0.03 for the first, -0.336 for the second.

Compared with “DEDDVNKAHNILKHGDWEKFASQADENVRIHIGNKEVNGRERASEVLKLIRDRVDSEEIKRMSFHGDKVVVDAEQVVNGKKVRFVIRVKAHNGRIKQMDFQFRNEEDKKKFDEAVN”, “DEDDVQHAQKLVEENDEDKLKRMFPPDARAHIGDKEVHGMDKWADILKTLHHKADSVHFKHVSVSGNSVNVNFVMVVDGQSIEFVLVIDVHNGRARRLRIDFRNEEQQKLFEKLIS” is higher in protease stability score: 0.477 for the first, 1.3 for the second.

First: DEDDVRRVAEQIVQALEKGDEQRMMELADPNAKARVGEKDYHGREDLHKIVKELKDDFDHARVESVEVDGDKVVIHMVVKSNGKDRRMIIRFRVHNGKVTEMEFRTG
Second: DEDDVRRVHEMIRAEETNNEHQVKDLMDENARMVVGDQEITGMDHILKFIRETNKEIDIELRLRDVKVSNGNVHVTARVRFTVNGKPVDRSAKMEVQVENGRIQDVQKRFPTEWKRERHK
The protease stability score of the first is higher: 1.75 for the first, -0.03 for the second.

First: DEDDWKKFMKFLKNLRNGDDEQAAKQADPNARFEYGDETIHGREHFRKHVKDTKDHARYSFNLKDYRVTPGRIEARMDVHSMENGRPDSNDVVLILSLSNGRIKKVEMKQVS
Second: DEDDWRKRMKKVVEVLRTGNPDTMVDMVDENAKAKYGDKEYHGREQIHKWMEDRQKRYDHVNVKHMHIQGNKVNISAVYVVNGRSEDRQLQVVFDNGKIKSMRVTEQ
The protease stability score of the first is higher: 0.063 for the first, -0.053 for the second.

Compared with “DEDEARKVMKKWQEVVQKGDPDDVRKLYKPNVKWEAADTRRQGVDVVVEQMKKVQDKGVEFQVRKAKVEGDRFQVVYDVKLGNDTATFTVQVEARGGQIDEVRAKVDEKAYKVMKKG”, “DEDEARTWANRMRKIIKEGDPKKMRHQLDKDAKAQVGDDTVHGRDKVVQLLQHILEHVDHVEIQHVEAQGNEVDIQVKLTVNGRDDSLKFDIKYHNGRVKTIRVQEQ” is lower in protease stability score: 0.123 for the first, -0.084 for the second.

First: DEDEATKVATNMQEILETGNPDEAAKLADKDVRVVVGDKDVHGSENLKDMMRELRERADHLRVVDMHSHGEKFVLLVIIEHNGRRHQVNIVMTIDNGRIKSLSITSG
Second: DEDEDDKMRKLIKTNNPQEIAQNADPNVEATVGNKTYHGREQMQQIAEIFRTMADHVHVDRVDADNGHVSAHRVITVNGHKVNVKVRFNISNGRIKRQEIDVTSEQDHRELEKNYN
The protease stability score of the first is higher: 1.87 for the first, 0.162 for the second.

Going from “DEDEDIRSWMKQFEEVVKTGDSKHAADMFDKNAKMQYGDKTYHGRDDVKSVLDHLLRRADHVRLELLDVKSNGESVHAVMLITFVVDGQTDSYHVELVFVVDNGRRNLHTATTK” to “DEDEDKRIQEVLEQNDFETLSKQADENAKVQYGDTEVHGRRKAYEYLRRLKRSIDHIHYHSIHVHNGRAKMTAEAHFNGRKAVFIVVLQFENGRIRMVVFRATDSRIKKIIKEALN”, the protease stability score rises from 0.872 to 0.988.

Compared with “DEDEEETLAQTWIKLMETGDPEQNMENVDPNVKVTYGDKTLHGREQFSDWEKKLHERVDRIEIKKMDVHNGSIRIVVVNDVNGKTKRFVVHLIYENGRLKSAKETDQ”, “DEDEEKRIRKYIKQQETGDPDKLNKYFDKDVHLHVGDKEVKGDEQANRELEHKFRKLRYSFEVKKLEVSNGKVEVKYHATVESNGKPHTYEVSADATLHNGRLQSQVNNERG” is lower in protease stability score: 0.413 for the first, -0.021 for the second.

Compared with “DEDEERDFEEMWKVFHKGNPDDYKKMIDKDVEIRIGDKTVHGREEIVRQVHHEMNNINFQLQSVDIRVTNGRVEIDVRYVSNVNGRPDTIRYTYHASASNGKLKTAEYRISEDQQNRHRR”, “DEDEERKAVERFLDALKTGDPDKFKKLVDPNVNIQVGDKEINGREQYAHEVHRRKKRADHLEVEHVNVKNGKVQIFVVINVDGRSHHYVLDAHIHNGRIVEMKVEHQ” is higher in protease stability score: -0.273 for the first, 0.08 for the second.

Compared with “DEDEERKVVHSIMHALEKGDEQKAVDLMDPNVKVIIGDKEISGRERVRDVAQELRKRIDHLRVKTLDVKNGQARAVAEVEHNGQERRIEFNMQLDNGRVKDMRIQER”, “DEDEERQFAKDLMRAMEKNDPKLLVKLADKDVSINYGEKQVHGKRQAEQLMRDLHKRVDDIKVRHVSMHNGSLTINLVLNVNGHNENLVAIVRVENGRIKSLTFEHR” is lower in protease stability score: 1.09 for the first, 0.861 for the second.

First: DEDEKMKRAMKKLNEVQNTGNEKTLANLMDPNARMDIGDKRYHGREQVTTAVKDIQRRVDHVEWRLTDLKQDGDKLDAKADVIFRTNGTQTNRHADMKLRDVNGQLVIVEYVIS
Second: DEDEKRELARRFAKNFLHGDHDNIRDLADKDVDAQVGDQTFTGTEQLMRVVKEVRDRVDHFNLTSVDVHNGQADIHARAKVNGRDYRVKIRIKIHNGRILHVQFNRR
The protease stability score of the first is lower: -0.093 for the first, 1.18 for the second.

Going from “DEDEKRKAEHLVRDGSFEELKDLMDENAKVRYGDKEFKGREQAQDAMRQMSRAVDSITVKSLDMQGDTVTARAQLTYNGQHYDVVIQMVVNNGRIKQFVVVVRDPKQKRTLENLRQ” to “DEDEKTKLAEQAKDILQEGNFHEMMHLADENAKVVYGDRRYDGREKVHKVLRDFDDRVDKIDVKRVRVENGRAKIVADVEHDGQRTTVIIHIQAHNGKIRRIRFHTP”, the protease stability score rises from 0.567 to 0.586.

First: DEDEKVRQLVRDLIEALRTNDQKRWVELADKDARLKVGDKSYHGREELAKQMKKLREHVDHVTMRVKRVEVHNGRISVDATLTYDINGKKNHQTVKMQFRRHNGQIRLVQIEME
Second: DEDELAQKLVEQMVKAIRHGDPHDFVKMIDKNATMDVGDKRLHGREKLEEFIKKLVDKYDHLDAKVSHMDLDNGQIKVNIEIHLVKNGKTDHITLDARADVTNGDARFVDFQWR
The protease stability score of the first is lower: 0.174 for the first, 1.47 for the second.

Going from “DEDELQRFAEQVNRVVRQGDPKQAERLFDENARVQIGDKTYHGREDISKMIENQRRRVDHIKVRRIDVQGNELVIHLVYNVNGQEHRNVLVFELHNGKIESAHRTDG” to “DEDEMKNVLELIRVMSKGDEDRIRERADPNVKVNIGDKRLQGREELARQASTEKKKMDIHIRVDSVHVHDGNVLIVYKRENHYNGEPNRDEQRFQAQASNGNLKNMSWRFDEDKKRKIET”, the protease stability score falls from 0.959 to -0.038.

First: DEDENNKILESINTNDSKHNKDLLDKDVTIRYGDKQVQGREEALEFLDTWNKRVDHFRVHHMTVKGDKLRMRFEIVFNGVTVEVSLSAKVENGRMKHFHLDARDEKVRHRLKRMFG
Second: DEDEQKVAKTFVEAVRQGDEKQIDDLADPNVRLRVGDKTLHGRDQLREHVRQMKEELKVEWSVQHVDFSDGRARIHAEMRVDVNGKPVTDDVTFFIEVKNGKVKNVEIHMDESVKREAEQ
The protease stability score of the first is lower: 0.108 for the first, 0.548 for the second.

Compared with “DEDEQRKIDETMHRLMEENNFDQLARTADENVRIVIGDKTYRGREQAVSAFRKLREHVDHADVKSVEIRNGRVLIKARLSFNGRTADVVFTFQFTNGRIQWAEVDPHAVRNARE”, “DEDEQRTLVEQLARAIQQGDEDQVRKLADPNAKARYGDHEIHGHDQLAHVVRQLKDQVDSIEVESFSVRNGRAELDIRFDVNGRDVKITINAEIRNGRMKHVEFQYTNEDQEKTANR” is lower in protease stability score: 1.06 for the first, 0.948 for the second.

Going from “DEDERAEKMARTAQEILETGDEEKAKRLFPPNARAKVGDRTYHGREDIVKHLKELWDRADHVRVEIKSFRVRGDNVHVVMTLVFTYNGKNETQQLTMIFVHVNGRQVAQDMKIG” to “DEDERQDLARKYNKALKQGDSKKFEELVDKHVKVEVGETRFHGREQASKNFRELVDNFDEFEVKSLEVHGESVTVEAVARINGRTANIRFQRTIHNGKNQVVKLNPDDMRRNLK”, the protease stability score falls from 0.671 to -0.134.

First: DEDETAKRVNDKAREAAETNNPKQFEELADPNVRMVIGDKEWRGRRQLSHWYKEMADRADHMQVDYQDVHVSGDKVTLHVQINLESNGHSEIKTLIVVMVVHNGRLRAQSQWEQ
Second: DEDEVEKIATTIKDVIQEGNFRQLEKLADPNAKVVIGDKTYRGRDAMRHAAQLLQQRADHITVQTVHVHGNKVEAHLRATVNGRDVHFVVKVTLENGRIKNMKIEYTDEDKFKEMVG
The protease stability score of the first is lower: 0.534 for the first, 1.31 for the second.

Compared with “DEDEVKEVLKRIKSNDWHTLAKQADENARAVVGDKTYHGRTQMKKWMDKVRKRVDHIEISKVKQEGDKAVVDLVFQVNGVKVHLVIYIHVHNGKVVDVQAKARNEEELHKLKKAVS”, “DEDEVRKAKKYIENWEQGNPKDLQEQADENASAQYGDKRIHGMTKIAKFVHKEHEESRVEIQDVQIEAHNGTVHIEIRAIFDHNGKPSQKKVFMSMTMHNGKVKDAELHSDK” is lower in protease stability score: 0.331 for the first, 0.155 for the second.

Going from “DEDEVRKIAEDVLRIIETGNPDDAMEQADENAEVIVGDKTYSGRTELRKVIHHMREKVDHMQVKSYDAHGNKATAVFILDNNGRKDEHVVYFDFHNGRLKKVNIQKK” to “DEDEWRKIWTVFENNDPRKFKTMVDKHAHAEVGDTEFHGREQIQHYFERLIRRVDHIEYKSVNIHGDKMRAEVVLNVDGQNLRYVYEVTVHNGRIKMMRIRFTDEEVERQMKRIVK”, the protease stability score falls from 0.243 to 0.209.

First: DEDEYAHQVAQELRKAMETGDSDRIARLFDENAELRVGDKVWHGRDQIRKYWHEWLRRADTVDVKIDEVDVEGDKARAHIRVRAEDNGRHQEFTVKMTLKNKNGRAKITSMHVS
Second: DEDFDTQLEEMLKNILNGNTEEIDKYADPNVKLEVGDHEYHGREHVKENWKEELDHMDVEVKSVHISARDGRAHVNLEFVVNIDGRPRHVKVREEFVWKNGKLKRANRHFSEEVKRQLER
The protease stability score of the first is higher: 1.57 for the first, 0.677 for the second.

First: DEDFMNKFEELLRNQQTGDPQFVADQADPNARWNVGDKQLHGRHQIRHQAKTESDQMEVQIDRMDVKVQNGHIDARINRQSNENGRPSRNELDQTVHYHNGKLKQLDESTSH
Second: DEDFWERVESMLRLWKHGNEDEWSKNADPNVRYVYGEKVVTGREQAKHMFRKVKDEIRFTFEFKRVRIQGDTIEAKFEFRADRNGKPRSANATVTIRFEGDKVHDNDVKSQS
The protease stability score of the first is lower: -0.44 for the first, 0.42 for the second.

First: DEDFWRRLVTLMQKNDFDQLARLVDPNAEVTVGDKTYEGRENIQKMWHKLKKQFDHYEIKTYRVKGDKLDMDYVFVVNGQQVRAKVEMRVHNGRLVELRFDARNPDELDTVRRILS
Second: DEDHASRQAKKFIDAMRSGDEELAKNLVDKDVTAIYGDRTVNGREQVMKMVKEFRNQADEITVDDMKVKNGRVVIHLKMDINGEQEVVIVILDIRNGRAKEISFERR
The protease stability score of the first is higher: 1.55 for the first, 1.27 for the second.

Source: the NTF2 design screens of Basanta et al. (2020)
